Laboratory results taken from paper PMC9254699 (2021).
No end group written: not given here.

Experiments:
TGF-β1 [1] = biological target: T1, TGF-β1 (Homo sapiens, UniProt P01137); assay: SPR
TGF-β1 [2] = biological target: T1, TGF-β1; assay: SPR; remark: listed apart in the source
TGF-β1 [3] = biological target: T1, TGF-β1; assay: sequestering from PRP by peptide-conjugated microspheres
TGF-β1 [4] = biological target: T1, TGF-β1; assay: 125I-TGF-β1 sequestering in 10% serum by peptide-conjugated microspheres

T1 sequence (P01137 279-390): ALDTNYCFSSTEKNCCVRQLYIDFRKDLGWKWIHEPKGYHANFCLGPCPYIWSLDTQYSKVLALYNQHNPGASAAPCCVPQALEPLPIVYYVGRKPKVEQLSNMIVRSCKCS

Kd (TGF-β1 [1]) [nM]	Kd (TGF-β1 [2]) [nM]	Kd (TGF-β1 [3]) [nM]	Kd (TGF-β1 [4]) [nM]	Binder
106	183	–	–	CIAEIDLIPRDRPF
765	745	–	–	CLIDFRIPADREVPI [Scrambled RIP]
–	–	~215	~211	CIAEIDLIPRDRPF (also: conjugated to PEG microspheres)
60	98.3	–	–	CIAEIDLIPRDRPFV [RIP]
